Laboratory results published in publication PMC9507964, “Structure of CRL7^FBXW8 reveals coupling with CUL1–RBX1/ROC1 for multi-cullin-RING E3-catalyzed ubiquitin ligation” (Nature Structural & Molecular Biology, 2022).
Values belong to the binder of their own block, whether it stands above or below them.

What was measured:
FBXW8 = molecular target: T1, FBXW8 (human, UniProt Q8N3Y1 1-598); assay: cryo-EM structure; purified CRL7^FBXW8 and CUL1 N-terminal region mixed 15 min before plunging, on ice; Glacios 200 kV; settings: both partners purified
T1 construct: FBXW8, human, full length; source: HEK293S, co-expressed (BacMam), purified within CRL7^FBXW8; not shown: GFP, N-terminal, cleaved
T1 sequence (looked up): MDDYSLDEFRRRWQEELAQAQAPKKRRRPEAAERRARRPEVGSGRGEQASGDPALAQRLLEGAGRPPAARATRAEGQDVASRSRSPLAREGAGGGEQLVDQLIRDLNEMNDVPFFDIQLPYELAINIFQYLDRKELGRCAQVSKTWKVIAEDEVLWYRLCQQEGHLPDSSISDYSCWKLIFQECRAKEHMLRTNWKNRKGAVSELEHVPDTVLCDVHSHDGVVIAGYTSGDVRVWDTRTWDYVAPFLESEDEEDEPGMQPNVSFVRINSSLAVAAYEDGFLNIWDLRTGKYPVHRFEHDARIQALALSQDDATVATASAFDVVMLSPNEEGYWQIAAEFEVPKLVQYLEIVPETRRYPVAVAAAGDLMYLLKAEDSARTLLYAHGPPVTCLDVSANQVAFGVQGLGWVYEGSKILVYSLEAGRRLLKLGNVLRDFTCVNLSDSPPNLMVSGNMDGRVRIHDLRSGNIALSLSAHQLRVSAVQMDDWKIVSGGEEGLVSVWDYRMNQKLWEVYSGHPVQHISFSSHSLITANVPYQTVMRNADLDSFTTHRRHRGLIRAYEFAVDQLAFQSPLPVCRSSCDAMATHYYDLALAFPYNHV

[1] = molecular target: T2, CUL1–RBX1 (full-length CUL1) (human, UniProt Q13616 1-776; P62877 5-108); assay: SEC; comigration; proteins mixed at equimolar 1.5 μM for at least 10 min on ice; Superose 6 5/150GL; 50 mM Tris pH 7.5, 150 mM NaCl, 1 mM DTT; fractions on Coomassie-stained SDS–PAGE; settings: both partners purified
T2 construct: CUL1, human, full length; RBX1, human, residue 5 to C terminus; Unneddylated form used in the SEC experiments; also called full-length CUL1–RBX1; not shown: GST, N-terminal, cleaved

binding result (FBXW8): binds
B1: CUL1 N-terminal region (residues 1–410) (domain or fragment)
chain: not shown
notes: CUL1, human, residues 1 to 410 encompassing the CR1, CR2 and CR3 domains; Expressed as a GST-thrombin or GST-TEV fusion; also called CUL1^NTD; N-terminal region of CUL1 (CR1, CR2 and CR3 domains)

binding result [1]: binds
B2: SKP1^ΔΔ–β-TRCP1 (monomeric form) complex (complex, human)
chain 1: MLQRDFITALPARGLDHIAENILSYLDAKSLCAAELVCKEWYRVTSDGMLWKKLIERMVRTDSLWRGLAERRGWGQYLFKNKPPDGNAPPNSFYRALYPKIIQDIETIESNWRCGRHSLQRIHCRSETSKGVYCLQYDDQKIVSGLRDNTIKIWDKNTLECKRILTGHTGSVLCLQYDERVIITGSSDSTVRVWDVNTGEMLNTLIHHCEAVLHLRFNNGMMVTCSKDRSIAVWDMASPTDITLRRVLVGHRAAVNVVDFDDKYIVSASGDRTIKVWNTSTCEFVRTLNGHKRGIACLQYRDRLVVSGSSDNTIRLWDIECGACLRVLEGHEELVRCIRFDNKRIVSGAYDGKIKVWDLVAALDPRAPAGTLCLRTLVEHSGRVFRLQFDEFQIVSSSHDDTILIWDFLNDPAAQAEPPRSPSRTYTYISR
chain 2: MPSIKLQSSDGEIFEVDVEIAKQSVTIKTMLEDLGMDPVPLPNVNAAILKKVIQWCTHHKDDPPDDIPVWDQEFLKVDQGTLFELILAANYLDIKGLLDVTCKTVANMIKGKTPEEIRKTFNIKNDFTEEEEAQVRKENQWCEEK
notes: β-TRCP1, human, monomeric form, from residue 175 to C terminus; also called SKP1-β-TRCP1; SKP-β-TRCP1; not shown: His-MBP, N-terminal, cleaved
